Laboratory results: PMC10950856, “Structure of orthoreovirus RNA chaperone σNS, a component of viral replication factories” (Nature Communications, 2024)
Positions count from the first letter of the chain named. Names and notes keep the numbering of the source. Values joined by “and” are separate entries in the source; they are usually repeats but may differ in a detail not shown here. Identical values can stand only once.

B1: σNS-ΔN17 (σNS lacking the N-terminal 17 residues) (domain or fragment)
chain: GQQVCPNYVMLRSSVTTKVVRNVVEYQIRTGGFFSCLAMLRPLQYAKRERLLGQRNLERISTRDILQTRDLHSLCMPTPDAPMSNHQASTMRELICSYFKVDHADGLKYIPMDERYSPSSLARLFTMGMAGLHITTEPSYKRVPIMHLAADLDCMTLALPYMITLDGDTVVPVAPTLSAEQLLDDGLKGLACMDISYGCEVDANSRPAGDQSMDSSRCINELYCEETAEAICVLKTCLVLNCMQFKLEMDDLAHNAAELDKIQMMIPFSERVFRMASSFATIDAQCFRFCVMMKDKNLKIDMRETTRLWTRSASDDSVATSSLSISLDRGRWVAADASDARLLVFPIRV
notes: σNS nonstructural protein of mammalian orthoreovirus, strain type 3 Dearing, truncated by the N-terminal 17 residues; synthesized gene in pET28; Dimer in solution and in the crystal; source: E. coli DE3 cells, purified (Ni-NTA, TEV cleavage, Q column, S200 SEC); not shown: His tag, N-terminal, cleaved
B2: wildtype (WT) σNS (mammalian orthoreovirus, strain type 3 Dearing) (natural protein)
chain: MASSLRAAISKIKRDDVGQQVCPNYVMLRSSVTTKVVRNVVEYQIRTGGFFSCLAMLRPLQYAKRERLLGQRNLERISTRDILQTRDLHSLCMPTPDAPMSNHQASTMRELICSYFKVDHADGLKYIPMDERYSPSSLARLFTMGMAGLHITTEPSYKRVPIMHLAADLDCMTLALPYMITLDGDTVVPVAPTLSAEQLLDDGLKGLACMDISYGCEVDANSRPAGDQSMDSSRCINELYCEETAEAICVLKTCLVLNCMQFKLEMDDLAHNAAELDKIQMMIPFSERVFRMASSFATIDAQCFRFCVMMKDKNLKIDMRETTRLWTRSASDDSVATSSLSISLDRGRWVAADASDARLLVFPIRV
notes: σNS nonstructural protein of mammalian orthoreovirus, strain type 3 Dearing; synthesized gene in pET28; source: E. coli DE3 cells, purified (Ni-NTA, TEV cleavage, Q column, S200 SEC); not shown: His tag, N-terminal, cleaved
B3: σNS-R6A (native, without Se-Met substitution) (natural protein)
chain: B2 chain with R6A
notes: σNS nonstructural protein of mammalian orthoreovirus, strain type 3 Dearing, with R6A; synthesized gene in pET28; Dimer in solution (~80 kDa); The N-terminal arm is disordered in the crystal with bile acid derivatives; also called native σNS-R6A; σNS R6A mutant; source: E. coli DE3 cells, purified (Ni-NTA, TEV cleavage, Q column, S200 SEC); not shown: His tag, N-terminal, cleaved
B4: selenomethionine (Se-Met)-substituted σNS-R6A (natural protein)
chain: B2 chain with R6A
modifications: selenomethionine in place of methionine (Se-Met-substituted; Mse 1 named)
notes: σNS nonstructural protein of mammalian orthoreovirus, strain type 3 Dearing, with R6A; synthesized gene in pET28; Octamer by SEC; helical assembly of dimers in the crystal; Residue 1 (Mse 1) is seen in the structure; also called Se-Met σNS-R6A; source: E. coli B834 cells in medium with Se-Met, purified (Ni-NTA, TEV cleavage, Q column, S200 SEC); not shown: His tag, N-terminal, cleaved

Legend:
[1] = target: the molecule itself; assay: not stated; in solution; the method is not named for this construct (the constructs were purified on an S200 16/60-increase column)
[2] = target: the molecule itself; assay: SEC; S200 16/60-increase column, 10 mM HEPES (pH 8.0), 150 mM NaCl, after anion-exchange chromatography; size of the oligomer from the elution volume

Protein | stoichiometry N [1] | stoichiometry N [2]
B1 | 2 | –
B2 | – | 10 and 8
B3 | – | 2
B4 | – | 8
